The results in this text go back to patent publication US20210388087A1.

Sequences and labels used below:
B1: H183/L072 VL K50M (antibody, name in Kabat numbering, V domains shown)
VH: QVQLVESGGGLVQPGRSLRLSCAASGFTFSNAWMHWVRQAPGKGLEWVAQIKDKGNAYAAYYAPSVKGRFTISRDDSKNSIYLQMNSLKTEDTAVYYCHYVHYASASTVLPAFGVDAWGQGTTVTVSS
VL: DIVMTQSPLSLPVTPGEPASISCQASQELVHMNRNTYLHWYQQKPGQAPRLLIYMVSNRFPGVPDRFSGSGSGTDFTLKISRVEAEDVGVYYCAQGTSVPFTFGQGTKLEIK
B2: H183/L072 VL A89R (antibody, name in Kabat numbering, V domains shown)
VH: B1 VH
VL: B1 VL with M55K, A94R
B3: H183/L072 VL V51P (antibody, name in Kabat numbering, V domains shown)
VH: B1 VH
VL: B1 VL with M55K, V56P
B4: H183/L072 VL S52P (antibody, name in Kabat numbering, V domains shown)
VH: B1 VH
VL: B1 VL with M55K, S57P
B5: H183/L072 VL K50F (antibody, name in Kabat numbering, V domains shown)
VH: B1 VH
VL: B1 VL with M55F
B6: H183/L072 VL T97P (antibody, name in Kabat numbering, V domains shown)
VH: B1 VH
VL: B1 VL with M55K, T102P
B7: H183/L072 VL K50G (antibody, name in Kabat numbering, V domains shown)
VH: B1 VH
VL: B1 VL with M55G
B8: H183/L072 VL K50Q (antibody, name in Kabat numbering, V domains shown)
VH: B1 VH
VL: B1 VL with M55Q
B9: H183/L072 VL F96P (antibody, name in Kabat numbering, V domains shown)
VH: B1 VH
VL: B1 VL with M55K, F101P
B10: H183/L072 VL P95V (antibody, name in Kabat numbering, V domains shown)
VH: B1 VH
VL: B1 VL with M55K, P100V
B11: H183/L072 VL Q90R (antibody, name in Kabat numbering, V domains shown)
VH: B1 VH
VL: B1 VL with M55K, Q95R
B12: H183/L072 VL G91M (antibody, name in Kabat numbering, V domains shown)
VH: B1 VH
VL: B1 VL with M55K, G96M
B13: H183/L072 VL Q90P (antibody, name in Kabat numbering, V domains shown)
VH: B1 VH
VL: B1 VL with M55K, Q95P
B14: H183/L072 VL A89N (antibody, name in Kabat numbering, V domains shown)
VH: B1 VH
VL: B1 VL with M55K, A94N
B15: H183/L072 VL Q90G (antibody, name in Kabat numbering, V domains shown)
VH: B1 VH
VL: B1 VL with M55K, Q95G
B16: H183/L072 VL P95F (antibody, name in Kabat numbering, V domains shown)
VH: B1 VH
VL: B1 VL with M55K, P100F
B17: H183/L072 VL K50V (antibody, name in Kabat numbering, V domains shown)
VH: B1 VH
VL: B1 VL with M55V
B18: H183/L072 VL Q90N (antibody, name in Kabat numbering, V domains shown)
VH: B1 VH
VL: B1 VL with M55K, Q95N
B19: H183/L072 VL F96V (antibody, name in Kabat numbering, V domains shown)
VH: B1 VH
VL: B1 VL with M55K, F101V
B20: H183/L072 VL G91P (antibody, name in Kabat numbering, V domains shown)
VH: B1 VH
VL: B1 VL with M55K, G96P
B21: H183/L072 VL S93P (antibody, name in Kabat numbering, V domains shown)
VH: B1 VH
VL: B1 VL with M55K, S98P
B22: H183/L072 VL Q90M (antibody, name in Kabat numbering, V domains shown)
VH: B1 VH
VL: B1 VL with M55K, Q95M
B23: H183/L072 VL T92P (antibody, name in Kabat numbering, V domains shown)
VH: B1 VH
VL: B1 VL with M55K, T97P
B24: H183/L072 VL P95N (antibody, name in Kabat numbering, V domains shown)
VH: B1 VH
VL: B1 VL with M55K, P100N
B25: H183/L072 VL F96G (antibody, name in Kabat numbering, V domains shown)
VH: B1 VH
VL: B1 VL with M55K, F101G
B26: H183/L072 VL F96R (antibody, name in Kabat numbering, V domains shown)
VH: B1 VH
VL: B1 VL with M55K, F101R
B27: H183/L072 VL F96N (antibody, name in Kabat numbering, V domains shown)
VH: B1 VH
VL: B1 VL with M55K, F101N
B28: H183/L072 VL K50N (antibody, name in Kabat numbering, V domains shown)
VH: B1 VH
VL: B1 VL with M55N
B29: H183/L072 VL K50W (antibody, name in Kabat numbering, V domains shown)
VH: B1 VH
VL: B1 VL with M55W
B30: H183/L072 VL G91V (antibody, name in Kabat numbering, V domains shown)
VH: B1 VH
VL: B1 VL with M55K, G96V
B31: H183/L072 VL P95R (antibody, name in Kabat numbering, V domains shown)
VH: B1 VH
VL: B1 VL with M55K, P100R
B32: H183/L072 VL P95M (antibody, name in Kabat numbering, V domains shown)
VH: B1 VH
VL: B1 VL with M55K, P100M
B33: H183/L072 VL V94G (antibody, name in Kabat numbering, V domains shown)
VH: B1 VH
VL: B1 VL with M55K, V99G
B34: H183/L072 VL G91R (antibody, name in Kabat numbering, V domains shown)
VH: B1 VH
VL: B1 VL with M55K, G96R
B35: H183/L072 VL V51F (antibody, name in Kabat numbering, V domains shown)
VH: B1 VH
VL: B1 VL with M55K, V56F
B36: H183/L072 VL Q90F (antibody, name in Kabat numbering, V domains shown)
VH: B1 VH
VL: B1 VL with M55K, Q95F
B37: H183/L072 VL G91F (antibody, name in Kabat numbering, V domains shown)
VH: B1 VH
VL: B1 VL with M55K, G96F
B38: H183/L072 VL G91N (antibody, name in Kabat numbering, V domains shown)
VH: B1 VH
VL: B1 VL with M55K, G96N
B39: H183/L072 VL K50P (antibody, name in Kabat numbering, V domains shown)
VH: B1 VH
VL: B1 VL with M55P
B40: H183/L072 VL P95G (antibody, name in Kabat numbering, V domains shown)
VH: B1 VH
VL: B1 VL with M55K, P100G
B41: H183/L072 VL V51N (antibody, name in Kabat numbering, V domains shown)
VH: B1 VH
VL: B1 VL with M55K, V56N
B42: H183/L072 VL Q90V (antibody, name in Kabat numbering, V domains shown)
VH: B1 VH
VL: B1 VL with M55K, Q95V
B43: H183/L072 VL F96M (antibody, name in Kabat numbering, V domains shown)
VH: B1 VH
VL: B1 VL with M55K, F101M
B44: H183/L072 VL A89P (antibody, name in Kabat numbering, V domains shown)
VH: B1 VH
VL: B1 VL with M55K, A94P

Changes are numbered by the printed parent chain. Numbers in names are those of the source.

Sequence of Human CD3eg linker (human) (chain, as listed by the source limits assumed): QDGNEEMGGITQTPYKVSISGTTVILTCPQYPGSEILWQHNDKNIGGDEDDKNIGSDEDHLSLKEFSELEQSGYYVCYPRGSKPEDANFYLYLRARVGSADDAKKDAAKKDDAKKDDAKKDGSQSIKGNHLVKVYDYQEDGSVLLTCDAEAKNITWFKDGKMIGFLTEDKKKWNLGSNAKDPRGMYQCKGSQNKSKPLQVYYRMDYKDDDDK

This test addresses Human CD3eg linker (human). Briefly: SPR; fold vs parent H183/L072.
For B1, the fold change of affinity was 0 fold.
The result for B2 reads 0 fold.
The result for B3 reads 0 fold.
The result for B4 reads 0 fold; that for B5, 0 fold.
For the molecule B6, the fold change of affinity is 0 fold.
The result for B7 reads 0 fold; that for B8, 0 fold.
The result for B9 reads 0 fold; that for B10, 0 fold; that for B11, 0 fold.
For B12, the fold change of affinity was 0 fold.
The result for B13 reads 0 fold.
Turning to B14, the fold change of affinity was determined as 0 fold.
The result for B15 reads 0 fold; that for B16, 0 fold; that for B17, 0 fold.
The result for B18 reads 0 fold.
The result for B19 reads 0 fold; that for B20, 0 fold.
As to B21, the fold change of affinity worked out at 0 fold.
The result for B22 reads 0 fold; that for B23, 0 fold; that for B24, 0 fold.
The result for B25 reads 0 fold; that for B26, 0 fold.
The result for B27 reads 0 fold.
For the molecule B28, the fold change of affinity was determined as 0 fold.
The result for B29 reads 0 fold.
The result for B30 reads 0 fold; that for B31, 0 fold.
The result for B32 reads 0 fold; that for B33, 0 fold.
Take B34: the fold change of affinity was found to be 0 fold.
Turning to B35, the fold change of affinity amounted to 0 fold.
The result for B36 reads 0 fold; that for B37, 0 fold; that for B38, 0 fold.
The result for B39 reads 0 fold.
For B40, the fold change of affinity worked out at 0 fold.
The result for B41 reads 0 fold; that for B42, 0 fold; that for B43, 0 fold.
The result for B44 reads 0 fold.
